Drawing on patent US20070178093A1, this text covers apoptotic cell death, 51Cr release from transfected Ba/F3 cells (in the presence of control IgG1), proliferation of CD4+ T cells in the presence of CD32/CD58/CD80 feeder L cells and proliferation of CD8+ T cells in the presence of CD32 feeder L cells for 2 substances.

The target in test [1] is fusion protein comprising the extracellular domain of hTEASR and the cytoplasmic region of Fas, expressed on Ba/F3 cells (human) (UniProt Q9Y5U5). The test is described as follows: cell-based or functional assay.
In test [2] the target is human glucocorticoid-induced tumor necrosis factor family-related receptor (TEASR) (human) (UniProt Q9Y5U5). Put plainly: cell-based or functional assay.

For “human TEASR ligand (TEASR-L) (from UniProt Q9UNG2 1-177)”, in test [1], the apoptotic cell death, 51Cr release from transfected Ba/F3 cells (in the presence of control IgG1) came out at 23 % release.
For the substance “hTEASR-L-Ig fusion protein (from UniProt Q9UNG2 49-177) (Fc fusion)”, in test [2], the proliferation of CD4+ T cells in the presence of CD32/CD58/CD80 feeder L cells came to 2.5 fold and the proliferation of CD8+ T cells in the presence of CD32 feeder L cells stood at 5.6 fold.
